This is an account of results in paper PMC10090139.

In the assay the target is endogenous KIT of C57 mouse mast cells (UniProt P05532). As to the kind of experiment: immunoprecipitation with anti-Flag antibody and immunoblot, densitometric analysis by ImageJ. To be noted: n = 4, p = 0.0013 (two-tailed unpaired Student's t-test), parent: est. 1.0, read off a plot.
Chain of UniProt P05532 (P05532 25-979): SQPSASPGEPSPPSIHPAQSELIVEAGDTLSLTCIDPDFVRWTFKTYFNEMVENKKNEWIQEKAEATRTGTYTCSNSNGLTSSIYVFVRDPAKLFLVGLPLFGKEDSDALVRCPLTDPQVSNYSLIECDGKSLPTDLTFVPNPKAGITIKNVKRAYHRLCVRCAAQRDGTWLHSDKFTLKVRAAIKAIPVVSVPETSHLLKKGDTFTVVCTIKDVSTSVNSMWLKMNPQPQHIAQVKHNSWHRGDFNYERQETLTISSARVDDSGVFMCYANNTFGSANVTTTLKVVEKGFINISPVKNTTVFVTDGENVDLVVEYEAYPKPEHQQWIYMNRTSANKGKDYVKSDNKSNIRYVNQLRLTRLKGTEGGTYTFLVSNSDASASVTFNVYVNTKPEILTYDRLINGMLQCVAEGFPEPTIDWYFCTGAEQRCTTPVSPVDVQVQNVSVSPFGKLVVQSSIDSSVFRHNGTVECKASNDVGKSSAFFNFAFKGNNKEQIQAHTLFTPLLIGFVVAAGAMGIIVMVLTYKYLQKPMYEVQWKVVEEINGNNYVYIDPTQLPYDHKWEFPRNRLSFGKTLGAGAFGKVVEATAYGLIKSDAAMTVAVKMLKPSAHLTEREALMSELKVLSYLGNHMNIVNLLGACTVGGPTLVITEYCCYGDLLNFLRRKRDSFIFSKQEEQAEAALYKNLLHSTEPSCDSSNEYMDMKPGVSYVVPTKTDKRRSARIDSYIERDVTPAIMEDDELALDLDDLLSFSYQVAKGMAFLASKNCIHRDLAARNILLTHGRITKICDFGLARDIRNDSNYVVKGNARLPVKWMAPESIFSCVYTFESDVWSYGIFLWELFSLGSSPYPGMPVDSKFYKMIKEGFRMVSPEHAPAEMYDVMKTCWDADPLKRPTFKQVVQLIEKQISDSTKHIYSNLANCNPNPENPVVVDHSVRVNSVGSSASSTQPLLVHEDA

On to “wild-type MCEMP1 with carboxyl-terminal Flag, stably expressed in C57 mouse mast cells (from UniProt Q8IX19) YF”, for which the ratio to parent was determined as 0.45.
